# B1: Ugo1 (natural protein)
# chain: MNNNNVTEATSRAQIRPYYDPDSFNAGYSAVFKPDEGVVDPHGYTIASKLNVINSSPTTKRMANALFKSSPMKKLSNSVNDGLSLEGSNGEITGLNNFEWAELVNIQKWRKIFEQLLDMFFRKYFQLLIQQPFDVARLLIQVGEFKIFKTTVDTNKPQAPIILRDEEGDGAAREGEEDAYDEEEIDFFPIERKIAEANSTAPIMAEETDHSHHEPTDISLTIAPQSLHTIDVINALFDQEGIRGLWKANNTTFIYNFLSLSIDTWFTGLLSSFLGVPDPYFMEVINSPDISKSFILALGAGVFTSIILLPVDLIRTRLIVTSFKKKKNVKTDGKNMVTNTRSLRQLIRCWSWRKNGVSIPLDMWSLTILQSINNSFFNKLFDLVIYNQFHIEKYSQTVMYNTMKFFSKSLELFIKLPLENLLRRCQLNYLLNDQRLSFKVDSTELIVKPKKYNGIWDVIRNNSNTNRGQLWNGWKVGVISLICGYGLQMMNKVDINMEQEKF
# Biological target: the molecule itself
# Assay: native gel or EMSA
protein,measurement,value
B1,stoichiometry N,2

# Source: PMC2654124 (The Journal of Cell Biology, 2009)
